Test results: article PMC9731233

Legend:
[1] = biological target: antitoxin PrpA^FL (Pseudoalteromonas rubra); test: SEC-MALS; purified PrpTA complex, PrpA^FL and PrpA^2–54 samples (Figure 1A); buffer of these runs not told
[2] = biological target: antitoxin PrpA^FL (Pseudoalteromonas rubra); test: crystal structure; PrpTA complex, ~3.6 mg/ml in 0.1 M NaCl, 0.05 M Tris pH 8.0; sitting drop, 16°C; molecular replacement
[3] = biological target: truncated antitoxin PrpA^2–54 (Pseudoalteromonas rubra); test: SEC-MALS; PrpA^2–54 in phosphate buffer (PB), 100 mM NaH2PO4/Na2HPO4 pH 8.0
[4] = biological target: truncated antitoxin PrpA^2–54 (Pseudoalteromonas rubra); test: SEC-MALS; purified PrpTA complex, PrpA^FL and PrpA^2–54 samples (Figure 1A); buffer of these runs not told
[5] = biological target: truncated antitoxin PrpA^2–54 (Pseudoalteromonas rubra); test: SEC-MALS; PrpA^2–54 at increased protein concentration (within a limited range; concentrations not given)
[6] = biological target: truncated antitoxin PrpA^2–54 (Pseudoalteromonas rubra); test: crystal structure; PrpA^2–54 form I and form II, ~5.2 mg/ml in 0.1 M NaCl, 0.05 M Tris pH 8.0; sitting drop, 16°C; molecular replacement with VcParD2 (PDB 7B22)

Substance	stoichiometry N [1]	stoichiometry N [2]	stoichiometry N [3]	stoichiometry N [4]	stoichiometry N [5]	stoichiometry N [6]
antitoxin PrpA^FL (natural protein)	4	2	–	–	–	–
truncated antitoxin PrpA^2–54 (domain or fragment)	–	–	4	2	6	16
